2 molecules from PMC8329073, “A kinetically controlled platform for ligand-oligonucleotide transduction” can be followed below.

In data set [1] the target is Thrombin (UniProt P00734;P00734 328-363;364-622). The data set is described as follows: strand-displacement fluorescence (Rep-2); 2-500 nM thrombin; LOD 0.96 nM; 5 mM Mg2+; 20 mM Tris-HCl pH 7.5 (22 °C), 100 mM NaCl, 0.1 mM EDTA, 5 mM MgCl2 (20 mM MgCl2 for DNAzyme), room temperature; indirect read-out by strand-displacement fluore.
For data set [2], the target named is PDGF-BB (human, UniProt P01127 82-190). Description: strand-displacement fluorescence (Rep-2); 50 nM PDGF; 5 mM Mg2+; 20 mM Tris-HCl pH 7.5 (22 °C), 100 mM NaCl, 0.1 mM EDTA, 5 mM MgCl2 (20 mM MgCl2 for DNAzyme), room temperature; indirect read-out by strand-displacement fluorescence. The conditions noted are these: protein: recombinant; chain copies: 2; hairpin, 2-bp stem.
Sequence of PDGF-BB (P01127 82-190): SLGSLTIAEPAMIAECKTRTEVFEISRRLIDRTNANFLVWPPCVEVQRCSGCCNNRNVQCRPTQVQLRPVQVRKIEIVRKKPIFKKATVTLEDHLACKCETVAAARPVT

B1: Apt-Thr-3bp (= Apt-Thr-OR, Apt-Thr-NOT) (structured_DNA)
DNA: ATGTCAACGTTGTCCGTGGTAGGGCAGGTTGGGGTGACTTGGATAGGTAGGGTACGCT
Turning to B1, the binding result in data set [1] is reported as “binds”.

B2: Apt-PDGF-2bp (structured_DNA)
DNA: ATGTCAACGTTGGCTACGGCACGTAGAGCATCACCATGATCCTTGGATAGGTAGGGTACGCT
For B2, the binding result in data set [2] is “binds”.
